Experimental data taken from IntAct's records for PubMed 15024067.

B1: RNA-binding protein PIN4 (Saccharomyces cerevisiae), P34217 (parent)
chain: METSSFENAPPAAINDAQDNNINTETNDQETNQQSIETRDAIDKENGVQTETGENSAKNAEQNVSSTNLNNAPTNGALDDDVIPNAIVIKNIPFAIKKEQLLDIIEEMDLPLPYAFNYHFDNGIFRGLAFANFTTPEETTQVITSLNGKEISGRKLKVEYKKMLPQAERERIEREKREKRGQLEEQHRSSSNLSLDSLSKMSGSGNNNTSNNQLFSTLMNGINANSMMNSPMNNTINNNSSNNNNSGNIILNQPSLSAQHTSSSLYQTNVNNQAQMSTERFYAPLPSTSTLPLPPQQLDFNDPDTLEIYSQLLLFKDREKYYYELAYPMGISASHKRIINVLCSYLGLVEVYDPRFIIIRRKILDHANLQSHLQQQGQMTSAHPLQPNSTGGSMNRSQSYTSLLQAHAAAAANSISNQAVNNSSNSNTINSNNGNGNNVIINNNSASSTPKISSQGQFSMQPTLTSPKMNIHHSSQYNSADQPQQPQPQTQQNVQSAAQQQQSFLRQQATLTPSSRIPSGYSANHYQINSVNPLLRNSQISPPNSQIPINSQTLSQAQPPAQSQTQQRVPVAYQNASLSSQQLYNLNGPSSANSQSQLLPQHTNGSVHSNFSYQSYHDESMLSAHNLNSADLIYKSLSHSGLDDGLEQGLNRSLSGLDLQNQNKKNLW
B2: Serine/threonine-protein kinase RAD53 (Saccharomyces cerevisiae), P22216 (parent)
chain: MENITQPTQQSTQATQRFLIEKFSQEQIGENIVCRVICTTGQIPIRDLSADISQVLKEKRSIKKVWTFGRNPACDYHLGNISRLSNKHFQILLGEDGNLLLNDISTNGTWLNGQKVEKNSNQLLSQGDEITVGVGVESDILSLVIFINDKFKQCLEQNKVDRIRSNLKNTSKIASPGLTSSTASSMVANKTGIFKDFSIIDEVVGQGAFATVKKAIERTTGKTFAVKIISKRKVIGNMDGVTRELEVLQKLNHPRIVRLKGFYEDTESYYMVMEFVSGGDLMDFVAAHGAVGEDAGREISRQILTAIKYIHSMGISHRDLKPDNILIEQDDPVLVKITDFGLAKVQGNGSFMKTFCGTLAYVAPEVIRGKDTSVSPDEYEERNEYSSLVDMWSMGCLVYVILTGHLPFSGSTQDQLYKQIGRGSYHEGPLKDFRISEEARDFIDSLLQVDPNNRSTAAKALNHPWIKMSPLGSQSYGDFSQISLSQSLSQQKLLENMDDAQYEFVKAQRKLQMEQQLQEQDQEDQDGKIQGFKIPAHAPIRYTQPKSIEAETREQKLLHSNNTENVKSSKKKGNGRFLTLKPLPDSIIQESLEIQQGVNPFFIGRSEDCNCKIEDNRLSRVHCFIFKKRHAVGKSMYESPAQGLDDIWYCHTGTNVSYLNNNRMIQGTKFLLQDGDEIKIIWDKNNKFVIGFKVEINDTTGLFNEGLGMLQEQRVVLKQTAEEKDLVKKLTQMMAAQRANQPSASSSSMSAKKPPVSDTNNNGNNSVLNDLVESPINANTGNILKRIHSVSLSQSQIDPSKKVKRAKLDQTSKGPENLQFS
partner: B1 chain

Variants of: B1
Details: with rad53_yeast RAD53, P22216

Row | effect of a mutation on the interaction | Variant
1 | disrupting interaction | T305A

Variants of: B2
Details: with pin4_yeast PIN4, P34217

Row | effect of a mutation on the interaction | Variant
2 | disrupting interaction | N107A
3 | disrupting interaction | S105T
4 | disrupting interaction | R70A
5 | disrupting interaction | R70K
